Consider 1 substance from patent US20070178095A1.

Assay in all cases: ELISA, growth factor coated at 10 ug/ml, antibody at 10 ug/ml, mean of duplicate wells
For orientation: In an ELISA, binding on a coated surface is turned into a signal by an enzyme label.

Experiment [1] concerns the target TGF-beta1 (Peprotech, Inc. 100-21R) (UniProt P01137).
Experiment [2] deals with BMP-7 (R&D Systems 354-BP) (UniProt P18075).
Experiment [3] addresses IGF-1 (R&D Systems 291-G1) (UniProt P05019).
In experiment [4] the target is TGF-beta2 (Peprotech, Inc. 100-35) (UniProt P61812).
Experiment [5] concerns the target recombinant human GDF-11 (Peprotech, Inc., Cat. # 120-11, carrier-free) (human) (UniProt O95390).
The target of experiment [6] is recombinant mouse myostatin (R&D systems, Cat. #788-G8/CF, carrier-free) (mouse) (UniProt O08689).
Experiment [7] deals with Activin A (R&D Systems 338-AC) (UniProt P08476).
Experiment [8] has as its target BMP-5 (R&D Systems 615-BM) (UniProt P22003).
Experiment [9] addresses Activin B (R&D Systems 659-AB) (UniProt P09529).
Experiment [10] concerns the target TGF-alpha (R&D Systems 239-A) (UniProt P01135).
Experiment [11] deals with BMP-6 (R&D Systems 507-BP) (UniProt P22004).
Experiment [12] deals with BMP-2 (R&D Systems 355-BEC/CF) (UniProt P12643).
Chain of BMP-2 (R&D Systems 355-BEC/CF) (P12643 283-396 limits assumed): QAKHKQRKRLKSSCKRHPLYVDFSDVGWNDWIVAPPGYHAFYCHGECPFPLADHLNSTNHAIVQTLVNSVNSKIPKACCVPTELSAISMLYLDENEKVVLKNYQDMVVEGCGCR

Chain of BMP-7 (R&D Systems 354-BP) (P18075 293-431 limits assumed): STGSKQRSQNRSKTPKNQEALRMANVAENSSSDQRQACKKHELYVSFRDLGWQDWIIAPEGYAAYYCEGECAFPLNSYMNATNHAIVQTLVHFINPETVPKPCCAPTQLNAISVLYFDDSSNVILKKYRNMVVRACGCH
Chain of TGF-alpha (R&D Systems 239-A) (P01135 40-89 limits assumed): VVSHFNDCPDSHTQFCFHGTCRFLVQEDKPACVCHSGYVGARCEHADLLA
Chain of Activin A (R&D Systems 338-AC) (P08476 311-426 limits assumed): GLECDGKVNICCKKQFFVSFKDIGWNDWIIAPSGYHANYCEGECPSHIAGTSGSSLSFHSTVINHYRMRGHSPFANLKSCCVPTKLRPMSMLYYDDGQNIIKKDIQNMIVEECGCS
Chain of IGF-1 (R&D Systems 291-G1) (P05019 49-118 limits assumed): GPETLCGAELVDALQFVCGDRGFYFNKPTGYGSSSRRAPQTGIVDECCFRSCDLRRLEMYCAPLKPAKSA
Chain of BMP-6 (R&D Systems 507-BP) (P22004 382-513 limits assumed): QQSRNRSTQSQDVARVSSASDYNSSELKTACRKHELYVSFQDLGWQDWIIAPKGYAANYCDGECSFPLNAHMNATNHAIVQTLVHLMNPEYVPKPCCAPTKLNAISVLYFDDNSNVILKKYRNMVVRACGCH
Chain of TGF-beta1 (Peprotech, Inc. 100-21R) (P01137 279-390 limits assumed): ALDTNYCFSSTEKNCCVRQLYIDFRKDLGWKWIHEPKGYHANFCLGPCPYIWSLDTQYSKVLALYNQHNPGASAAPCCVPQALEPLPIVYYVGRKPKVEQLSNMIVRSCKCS
Chain of BMP-5 (R&D Systems 615-BM) (P22003 317-454 limits assumed): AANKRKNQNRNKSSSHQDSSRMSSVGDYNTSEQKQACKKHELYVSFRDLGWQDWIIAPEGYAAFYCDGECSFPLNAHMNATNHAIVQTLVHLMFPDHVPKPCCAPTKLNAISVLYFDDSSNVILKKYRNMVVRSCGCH
Chain of Activin B (R&D Systems 659-AB) (P09529 293-407 limits assumed): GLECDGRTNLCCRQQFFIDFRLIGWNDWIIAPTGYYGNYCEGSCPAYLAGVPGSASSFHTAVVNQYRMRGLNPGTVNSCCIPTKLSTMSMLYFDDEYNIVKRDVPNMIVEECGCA
Chain of TGF-beta2 (Peprotech, Inc. 100-35) (P61812 303-414 limits assumed): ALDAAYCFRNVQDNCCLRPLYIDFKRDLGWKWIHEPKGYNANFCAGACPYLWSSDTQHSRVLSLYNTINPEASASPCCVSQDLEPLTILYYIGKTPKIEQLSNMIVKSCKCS
Chain of recombinant mouse myostatin (R&D systems, Cat. #788-G8/CF, carrier-free) (mouse) (O08689 268-376): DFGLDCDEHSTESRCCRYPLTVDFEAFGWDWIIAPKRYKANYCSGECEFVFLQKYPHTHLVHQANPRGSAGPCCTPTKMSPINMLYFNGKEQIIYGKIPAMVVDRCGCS
Chain of recombinant human GDF-11 (Peprotech, Inc., Cat. # 120-11, carrier-free) (human) (O95390 299-407 limits assumed): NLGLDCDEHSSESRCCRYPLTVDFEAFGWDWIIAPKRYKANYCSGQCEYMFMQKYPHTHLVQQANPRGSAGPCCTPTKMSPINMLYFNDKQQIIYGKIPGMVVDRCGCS

Turning to “polyclonal anti-myostatin antibody (R&D Systems, catalog #AF788)”, the absorbance at 490 nm in [1] is 0.0425 OD 490 nm; in experiment [2] it was 0.042 OD 490 nm; in [3], 0.045 OD 490 nm; in [4], 0.0525 OD 490 nm; in experiment [5] it was 2.62 OD 490 nm; in [6], 2.94 OD 490 nm. Besides, the absorbance at 490 nm in experiment [7] came to 0.049 OD 490 nm; in experiment [8], 0.038 OD 490 nm; in [9], 0.0485 OD 490 nm; in experiment [10], 0.0445 OD 490 nm; in experiment [11], 0.0745 OD 490 nm; in experiment [12], 0.0525 OD 490 nm.
